Data: patent US20240261333A1, “NOVEL TARGETS FOR ENHANCING ANTI-TUMOR IMMUNITY” (THE BROAD INSTITUTE, INC., priority 2021, published 2024)

Experiments:
SEL1L (human) = SEL1L (human) (UniProt Q9UBV2); assay: co-IP with control IgG, mass spectrometry; lysate of cells with C-FLAG B3GNT2
NPM1 (human) = NPM1 (human) (UniProt P06748); assay: as above
EIF4A1 (human) = EIF4A1 (human) (UniProt P60842); assay: as above
TOR1AIP2 (human) = TOR1AIP2 (human) (UniProt Q8NFQ8); assay: as above
UGGT1 (human) = UGGT1 (human) (UniProt Q9NYU2); assay: as above
DNAJB11 (human) = DNAJB11 (human) (UniProt Q9UBS4); assay: as above
ARF4 (human) = ARF4 (human) (UniProt P18085); assay: as above
RPS27 (human) = RPS27 (human) (UniProt P42677); assay: as above
ILF3 (human) = ILF3 (human) (UniProt Q12906); assay: as above
STAU2 (human) = STAU2 (human) (UniProt Q9NUL3); assay: as above
SLC25A5 (human) = SLC25A5 (human) (UniProt P05141); assay: as above
RRP12 (human) = RRP12 (human) (UniProt Q5JTH9); assay: as above
RCC2 = RCC2 (UniProt Q9P258); assay: co-IP with mouse IgG control, mass spectrometry; lysate of N-FLAG B3GNT2 cells
LTF = LTF (UniProt P02788); assay: as above
SERPINB12 = SERPINB12 (UniProt Q96P63); assay: as above
RPLP2 = RPLP2 (UniProt P05387); assay: as above
RPL21 = RPL21 (UniProt P46778); assay: as above
RPL36A = RPL36A (UniProt P83881); assay: as above
EEF1A1 = EEF1A1 (UniProt P68104); assay: as above
PPIA = PPIA (UniProt P62937); assay: as above
SSR1 = SSR1 (UniProt P43307); assay: as above
TRIM21 = TRIM21 (UniProt P19474); assay: as above
CTSD = CTSD (UniProt P07339); assay: as above
YBX3 = YBX3 (UniProt P16989); assay: as above
RPL35A = RPL35A (UniProt P18077); assay: as above
S100A9 = S100A9 (UniProt P06702); assay: as above
SLIRP = SLIRP (UniProt Q9GZT3); assay: as above
RPL36 = RPL36 (UniProt Q9Y3U8); assay: as above
STRAP = STRAP (UniProt Q9Y3F4); assay: as above
HBA1 = HBA1 (UniProt P69905); assay: as above
ATP5F1B = ATP5F1B (UniProt P06576); assay: as above
RPL31 = RPL31 (UniProt P62899); assay: as above
PCMT1 = PCMT1 (UniProt P22061); assay: as above
HNRNPF = HNRNPF (UniProt P52597); assay: as above
RPL10A = RPL10A (UniProt P62906); assay: as above
ENO1 = ENO1 (UniProt P06733); assay: as above
RPN1 = RPN1 (UniProt P04843); assay: as above
S100A8 = S100A8 (UniProt P05109); assay: as above
Chain of S100A8 (P05109 whole entry): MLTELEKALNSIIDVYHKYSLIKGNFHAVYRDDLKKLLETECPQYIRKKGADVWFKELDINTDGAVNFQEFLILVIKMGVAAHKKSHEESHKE

Chain of CTSD (P07339 65-412 limits assumed): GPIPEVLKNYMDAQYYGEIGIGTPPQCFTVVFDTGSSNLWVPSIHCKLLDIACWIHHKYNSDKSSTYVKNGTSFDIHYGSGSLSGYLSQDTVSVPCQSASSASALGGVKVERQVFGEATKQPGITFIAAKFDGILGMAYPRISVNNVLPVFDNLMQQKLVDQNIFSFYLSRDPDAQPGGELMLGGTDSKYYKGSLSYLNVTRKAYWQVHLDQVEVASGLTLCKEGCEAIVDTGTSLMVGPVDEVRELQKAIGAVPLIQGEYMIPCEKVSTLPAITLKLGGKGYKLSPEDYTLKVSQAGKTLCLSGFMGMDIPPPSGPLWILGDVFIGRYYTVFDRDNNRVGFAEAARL
Chain of RCC2 (Q9P258 whole entry): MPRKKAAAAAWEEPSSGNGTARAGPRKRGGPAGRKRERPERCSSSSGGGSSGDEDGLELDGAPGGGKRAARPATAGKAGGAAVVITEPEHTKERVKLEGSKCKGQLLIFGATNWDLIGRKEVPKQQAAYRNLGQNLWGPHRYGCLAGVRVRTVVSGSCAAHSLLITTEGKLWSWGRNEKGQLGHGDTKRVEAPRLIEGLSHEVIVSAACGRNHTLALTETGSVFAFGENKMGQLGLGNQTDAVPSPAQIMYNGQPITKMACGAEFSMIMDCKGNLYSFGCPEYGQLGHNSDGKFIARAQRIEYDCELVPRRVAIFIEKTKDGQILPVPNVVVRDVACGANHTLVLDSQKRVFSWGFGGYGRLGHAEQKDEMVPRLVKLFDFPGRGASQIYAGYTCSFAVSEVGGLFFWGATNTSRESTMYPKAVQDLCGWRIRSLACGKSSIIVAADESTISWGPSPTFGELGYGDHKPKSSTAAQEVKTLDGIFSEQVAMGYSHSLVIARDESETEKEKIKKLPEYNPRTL
Chain of RPLP2 (P05387 whole entry): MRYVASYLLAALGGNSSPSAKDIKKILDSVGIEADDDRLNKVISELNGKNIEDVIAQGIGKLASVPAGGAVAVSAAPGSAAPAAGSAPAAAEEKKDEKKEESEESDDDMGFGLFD
Chain of STAU2 (human) (Q9NUL3 whole entry): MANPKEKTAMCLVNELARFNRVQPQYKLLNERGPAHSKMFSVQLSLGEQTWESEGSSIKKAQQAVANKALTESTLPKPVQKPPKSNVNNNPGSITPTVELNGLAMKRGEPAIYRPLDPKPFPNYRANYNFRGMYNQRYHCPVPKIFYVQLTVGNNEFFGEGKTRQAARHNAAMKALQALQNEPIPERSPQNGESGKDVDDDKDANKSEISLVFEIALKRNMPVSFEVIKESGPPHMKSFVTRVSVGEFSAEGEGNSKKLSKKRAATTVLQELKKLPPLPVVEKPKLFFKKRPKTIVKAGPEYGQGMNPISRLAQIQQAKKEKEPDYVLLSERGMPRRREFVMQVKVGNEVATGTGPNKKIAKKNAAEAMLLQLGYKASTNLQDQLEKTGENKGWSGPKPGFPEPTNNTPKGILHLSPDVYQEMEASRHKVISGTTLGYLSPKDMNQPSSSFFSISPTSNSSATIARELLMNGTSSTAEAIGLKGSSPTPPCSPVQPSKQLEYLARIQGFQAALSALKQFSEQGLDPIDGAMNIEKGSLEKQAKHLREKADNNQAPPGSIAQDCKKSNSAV
Chain of HNRNPF (P52597 2-415 limits assumed): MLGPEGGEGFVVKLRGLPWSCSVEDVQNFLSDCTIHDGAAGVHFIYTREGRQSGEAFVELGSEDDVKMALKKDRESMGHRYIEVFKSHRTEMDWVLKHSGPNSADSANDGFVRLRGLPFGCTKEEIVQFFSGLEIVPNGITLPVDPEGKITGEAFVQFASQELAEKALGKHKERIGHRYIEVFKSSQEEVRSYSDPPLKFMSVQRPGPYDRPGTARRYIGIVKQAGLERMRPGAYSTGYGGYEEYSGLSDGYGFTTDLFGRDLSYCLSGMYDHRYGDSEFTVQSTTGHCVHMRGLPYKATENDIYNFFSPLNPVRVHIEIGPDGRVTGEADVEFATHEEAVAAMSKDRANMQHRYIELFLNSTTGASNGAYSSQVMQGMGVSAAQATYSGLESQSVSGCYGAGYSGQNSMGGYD
Chain of TOR1AIP2 (human) (Q8NFQ8 2-470 limits assumed): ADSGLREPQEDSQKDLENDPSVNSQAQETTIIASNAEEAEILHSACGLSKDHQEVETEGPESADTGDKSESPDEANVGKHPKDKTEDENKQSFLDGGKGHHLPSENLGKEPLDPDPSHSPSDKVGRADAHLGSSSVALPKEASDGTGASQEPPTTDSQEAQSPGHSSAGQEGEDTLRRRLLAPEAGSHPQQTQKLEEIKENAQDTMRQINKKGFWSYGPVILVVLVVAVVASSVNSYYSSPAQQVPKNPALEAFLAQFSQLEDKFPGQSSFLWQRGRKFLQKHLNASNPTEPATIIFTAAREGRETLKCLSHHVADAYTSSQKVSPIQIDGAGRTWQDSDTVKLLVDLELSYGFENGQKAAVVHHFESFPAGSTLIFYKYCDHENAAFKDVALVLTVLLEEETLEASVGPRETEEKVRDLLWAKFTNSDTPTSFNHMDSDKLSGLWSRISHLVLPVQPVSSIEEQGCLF
Chain of LTF (P02788 20-710 limits assumed): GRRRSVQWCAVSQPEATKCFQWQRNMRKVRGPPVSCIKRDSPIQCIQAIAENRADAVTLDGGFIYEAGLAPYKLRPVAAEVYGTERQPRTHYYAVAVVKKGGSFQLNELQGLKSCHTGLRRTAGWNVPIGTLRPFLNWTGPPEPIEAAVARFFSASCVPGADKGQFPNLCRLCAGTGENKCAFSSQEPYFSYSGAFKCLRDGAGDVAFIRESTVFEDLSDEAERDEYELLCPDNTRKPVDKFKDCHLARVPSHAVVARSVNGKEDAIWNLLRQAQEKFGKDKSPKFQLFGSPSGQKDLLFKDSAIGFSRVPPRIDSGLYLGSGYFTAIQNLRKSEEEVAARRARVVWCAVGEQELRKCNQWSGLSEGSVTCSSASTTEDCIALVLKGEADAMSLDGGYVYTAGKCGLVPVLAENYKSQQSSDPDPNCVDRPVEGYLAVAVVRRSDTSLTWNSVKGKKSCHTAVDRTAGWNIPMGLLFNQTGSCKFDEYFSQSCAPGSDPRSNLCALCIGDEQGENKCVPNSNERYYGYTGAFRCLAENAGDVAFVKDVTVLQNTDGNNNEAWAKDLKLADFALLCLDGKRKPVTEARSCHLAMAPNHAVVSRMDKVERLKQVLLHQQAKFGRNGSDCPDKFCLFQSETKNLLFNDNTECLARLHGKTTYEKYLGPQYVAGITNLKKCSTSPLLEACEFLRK
Chain of SSR1 (P43307 19-286 limits assumed): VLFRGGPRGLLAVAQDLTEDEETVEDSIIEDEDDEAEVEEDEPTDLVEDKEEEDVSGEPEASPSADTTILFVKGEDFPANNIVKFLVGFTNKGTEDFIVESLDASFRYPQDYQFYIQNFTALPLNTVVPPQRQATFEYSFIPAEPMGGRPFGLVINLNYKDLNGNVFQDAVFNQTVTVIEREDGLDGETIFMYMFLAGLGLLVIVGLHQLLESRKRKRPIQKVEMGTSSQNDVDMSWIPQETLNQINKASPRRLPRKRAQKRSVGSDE
Chain of S100A9 (P06702 whole entry): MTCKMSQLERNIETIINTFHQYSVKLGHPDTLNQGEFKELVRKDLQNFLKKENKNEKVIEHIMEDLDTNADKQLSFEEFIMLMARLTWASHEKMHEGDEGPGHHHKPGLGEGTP
Chain of TRIM21 (P19474 whole entry): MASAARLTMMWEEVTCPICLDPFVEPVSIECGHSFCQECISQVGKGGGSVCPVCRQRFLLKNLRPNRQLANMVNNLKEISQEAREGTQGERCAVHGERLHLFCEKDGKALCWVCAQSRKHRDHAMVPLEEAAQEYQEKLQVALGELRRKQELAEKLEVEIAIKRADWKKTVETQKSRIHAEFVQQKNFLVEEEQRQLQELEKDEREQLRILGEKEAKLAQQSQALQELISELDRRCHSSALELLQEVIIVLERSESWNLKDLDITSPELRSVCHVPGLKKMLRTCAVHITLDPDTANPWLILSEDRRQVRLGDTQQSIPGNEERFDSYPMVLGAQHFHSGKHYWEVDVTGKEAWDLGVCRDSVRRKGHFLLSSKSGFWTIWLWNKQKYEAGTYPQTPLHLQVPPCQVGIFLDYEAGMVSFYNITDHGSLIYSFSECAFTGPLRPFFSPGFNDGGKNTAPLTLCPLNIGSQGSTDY
Chain of ARF4 (human) (P18085 2-180 limits assumed): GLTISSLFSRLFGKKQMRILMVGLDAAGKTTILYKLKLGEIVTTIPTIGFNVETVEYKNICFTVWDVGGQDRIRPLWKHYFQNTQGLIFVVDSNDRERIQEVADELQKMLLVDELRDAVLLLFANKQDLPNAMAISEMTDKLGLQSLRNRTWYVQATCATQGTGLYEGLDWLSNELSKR
Chain of ATP5F1B (P06576 48-529 limits assumed): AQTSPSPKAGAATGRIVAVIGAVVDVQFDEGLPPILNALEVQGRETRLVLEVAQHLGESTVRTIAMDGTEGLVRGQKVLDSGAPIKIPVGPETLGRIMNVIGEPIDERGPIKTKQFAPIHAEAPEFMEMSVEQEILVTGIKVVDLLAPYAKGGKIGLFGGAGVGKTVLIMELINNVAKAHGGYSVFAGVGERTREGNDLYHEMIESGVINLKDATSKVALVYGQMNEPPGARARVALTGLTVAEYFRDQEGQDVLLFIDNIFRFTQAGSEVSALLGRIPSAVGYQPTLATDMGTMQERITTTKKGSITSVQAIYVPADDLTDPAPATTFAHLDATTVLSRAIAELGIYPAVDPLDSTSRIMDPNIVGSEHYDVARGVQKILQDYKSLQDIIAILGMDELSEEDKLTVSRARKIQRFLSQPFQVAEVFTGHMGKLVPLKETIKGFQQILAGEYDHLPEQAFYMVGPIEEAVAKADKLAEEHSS
Chain of HBA1 (P69905 2-142 limits assumed): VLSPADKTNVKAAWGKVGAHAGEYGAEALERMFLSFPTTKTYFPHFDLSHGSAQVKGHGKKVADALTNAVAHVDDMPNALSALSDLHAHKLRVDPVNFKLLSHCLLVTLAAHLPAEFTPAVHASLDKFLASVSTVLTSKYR

IgG control (Millipore Sigma 12-371) (antibody)
co-IP mass spectrometry count (SEL1L (human)): 0 | co-IP mass spectrometry count (NPM1 (human)): 0 | co-IP mass spectrometry count (EIF4A1 (human)): 0 | co-IP mass spectrometry count (TOR1AIP2 (human)): 0 | co-IP mass spectrometry count (UGGT1 (human)): 0 | co-IP mass spectrometry count (DNAJB11 (human)): 0 | co-IP mass spectrometry count (ARF4 (human)): 0 | co-IP mass spectrometry count (RPS27 (human)): 0 | co-IP mass spectrometry count (ILF3 (human)): 0 | co-IP mass spectrometry count (STAU2 (human)): 0 | co-IP mass spectrometry count (SLC25A5 (human)): 3 | co-IP mass spectrometry count (RRP12 (human)): 0 | co-IP mass spectrometry count (RCC2): 0 | co-IP mass spectrometry count (LTF): 6 | co-IP mass spectrometry count (SERPINB12): 0 | co-IP mass spectrometry count (RPLP2): 3 | co-IP mass spectrometry count (RPL21): 5 | co-IP mass spectrometry count (RPL36A): 2 | co-IP mass spectrometry count (EEF1A1): 8 | co-IP mass spectrometry count (PPIA): 0 | co-IP mass spectrometry count (SSR1): 0 | co-IP mass spectrometry count (TRIM21): 0 | co-IP mass spectrometry count (CTSD): 3 | co-IP mass spectrometry count (YBX3): 0 | co-IP mass spectrometry count (RPL35A): 0 | co-IP mass spectrometry count (S100A9): 0 | co-IP mass spectrometry count (SLIRP): 0 | co-IP mass spectrometry count (RPL36): 0 | co-IP mass spectrometry count (STRAP): 0 | co-IP mass spectrometry count (HBA1): 3 | co-IP mass spectrometry count (ATP5F1B): 0 | co-IP mass spectrometry count (RPL31): 0 | co-IP mass spectrometry count (PCMT1): 0 | co-IP mass spectrometry count (HNRNPF): 0 | co-IP mass spectrometry count (RPL10A): 4 | co-IP mass spectrometry count (ENO1): 2 | co-IP mass spectrometry count (RPN1): 0 | co-IP mass spectrometry count (S100A8): 4
